B1: HigA2 (protein)
chain: MSNRDLFAELSSALVEAKQHSEGKLTLKTHHVNDVGELNISPDEIVSIREQFNMSRGVFARLLHTSSRTLENWEQGRSVPNGQAVTLLKLVQRHPETLSHIAEL
B2: HigB2 (protein)
chain: MKSVFVESTIFEKYRDEYLSDEEYRLFQAELMLNPKLGDVIQGTGGLRKIRVASKGKGKRGGSRIIYYFLDEKRRFYLLTIYGKNEMSDLNANQRKQLMAFMEAWRNEQS

Columns and labels:
Assay in all cases: competition
HigB2 = target: B2
HigA2 3-33 peptide 3-33 = HigA2 3-33 peptide 3-33 (Vibrio cholerae, UniProt Q9KMA5)
HigA2 3-23 peptide 3-23 = HigA2 3-23 peptide 3-23 (Vibrio cholerae, UniProt Q9KMA5)

Binder | Kd (HigB2) [nM] | Kd (HigA2 3-33 peptide 3-33) [nM] | Kd (HigA2 3-23 peptide 3-23) [nM]
B1 | 0.016 | – | –
B2 | – | ~0.127 | 0.003
